Target: T1, commercial recombinant human full-length wtTDP-43 (Abcam, ab224788) (human, UniProt Q13148 1-414)
T1 construct: TDP-43 (TARDBP), human, wild type, recombinant full length; also called recombinant wtTDP-43; source: bought: Abcam, ab224788
Assay: ELISA; indirect ELISA: wells coated overnight at 4 °C with commercial human wtTDP-43 at 1 µg/mL in PBS; purified scFv at 1, 5 or 10 µg/mL, 1 h at RT; detected with HRP-conjugated anti-6xHis antibody, absorbance at 450 nm
Conditions: both partners purified

T1 sequence (Q13148 whole entry): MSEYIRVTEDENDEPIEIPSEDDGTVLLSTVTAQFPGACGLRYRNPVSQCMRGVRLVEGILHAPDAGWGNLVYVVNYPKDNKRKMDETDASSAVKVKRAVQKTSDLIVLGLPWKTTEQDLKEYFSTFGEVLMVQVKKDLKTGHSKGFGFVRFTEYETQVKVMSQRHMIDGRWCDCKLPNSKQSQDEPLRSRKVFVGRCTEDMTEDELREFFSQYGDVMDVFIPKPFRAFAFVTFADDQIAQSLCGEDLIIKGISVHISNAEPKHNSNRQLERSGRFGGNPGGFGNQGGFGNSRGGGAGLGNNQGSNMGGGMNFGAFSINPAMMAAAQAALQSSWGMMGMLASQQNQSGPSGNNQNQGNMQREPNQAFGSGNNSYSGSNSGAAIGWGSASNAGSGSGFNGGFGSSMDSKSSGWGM

fold increase of the ELISA signal over the control scFv 13R4 at 5 µg/mL [fold]	fold increase of the ELISA signal over the control scFv 13R4 at 10 µg/mL [fold]	Binder
2	2	scFv D7, purified (c-myc and 6xHis tags) (scFv, VH of scFv D7 as printed; linker of the HuscI library between VH and VL; VL of scFv D7; Selected from the human synthetic HuscI library; The scFv was moved as an NcoI-NotI fragment from pHEN-HuscI into pET-23NN, which adds c-myc and 6xHis at the 3' end; source: E. coli BL21(DE3)pLysS, pET-23NN vector, purified (Ni-NTA, dialysed in MilliQ water); not shown: c-myc, C-terminal, kept; His6, …) scFv: MAEVQLVESGGSLVKPGGSLRLSCAASGFTFSNYYMNWVRQAPGKGLEWISDIYGSSRYISYADFVKGRFTISRDNATNSLYLQMNSLRAEDTAVYYCVRSSSNDGGGMDVWGRGTLVTVSSGGGGSGGGGSGGGGSQSVLTQPASVSGSPGQSITISCAGTSSDVGGNNYVSWYQQHPGKAPKLMIYYDSYRPSGVSNRFSGSKSGNTASLTISGLQAEDEADYYCSSYTYSSTRVFGGGTKLAVLG
5	3	scFv B1, purified (c-myc and 6xHis tags) (scFv, VH of scFv B1 as printed; linker of the HuscI library between VH and VL; VL of scFv B1; Selected from the human synthetic HuscI library; The scFv was moved as an NcoI-NotI fragment from pHEN-HuscI into pET-23NN, which adds c-myc and 6xHis at the 3' end; source: E. coli BL21(DE3)pLysS, pET-23NN vector, purified (Ni-NTA, dialysed in MilliQ water); not shown: c-myc, C-terminal, kept; His6, …) scFv: MAEVQLVESGGSLVKPGGSLRLSCAASGFTFSNYDMNWVRQAPGKGLEWISDIDGSSRNIYYADFVKGRFTISRDNATNSLYLQMNSLRAEDTAVYYCVRSSYYDNGMDVWGRGTLVTVSSGGGGSGGGGSGGGGSQSVLTQPASVSGSPGQSITISCAGTSSDVGGYDGVSWYQQHPGKAPKLMIYYDSYRPSGVSNRFSGSKSGNTASLTISGLQAEDEADYYCSSYTYYSTRVFGGGTKLAVLG

Reference: article PMC12321133, “scFv intrabody targeting wildtype TDP-43 presents protective effects in a cellular model of TDP-43 proteinopathy” (PLOS One, 2025)
